This is an account of results in the DeepSol protein solubility set.

This series is described as follows: soluble on expression in E. coli; label from the status in PepcDB or PDB records.
With “MIPKIIHYVWVGHNPKSKLIQECIATWKEKLPDYQFIEWNEDNFDMHENKYIEQAYKAKKWAFVSDYIRAKAIYEQGGIYLDTDVRVIASLTPLLDNKAFIGFENNNYLSAAIFGAEKGHPFMQDILDYYKDRNFEYDVNNQMAGVNSVSVTDMLIDRYGLKIGNKEQELKEGIHVYPDGVLCNPSVNSLSIHLFTGTWMNGKHSFKHKLVTFLKRHINTPKEAGLYAKWIRLEHHHHHH”, the “soluble on expression in E. coli” value was “soluble”. The same measure for “MIPTISDVSTVEEWRSVAKDIVQRDGDVNWRATIVDWPGLGYSARPKMDYDTDVMEKFVVDFMNSPESPMSQSGNDDLVIIGGGHAATLALRATQRGLLKPSAIAAVAPTWAGPLPIVFGRDSSMVSRYGMLRGTLRAPGVGWMMYNMLVSNEKSIESQYKSHVYADQTNVTDAIIQSRYELTKQKGSRYVPAAFLTGLLDPVSSREEFLQLFADLEGKLPVMVMSTKGAPKRSKAEMEALRGAKGVSKFVEVEGALLPQEEYPSLVAQELYNFLQETFAKC”: “not soluble”; for “MIQAILVFNNHGKPRLVRFYQRFPEEIQQQIVRETFHLVLKRDDNICNFLEGGSLIGGSDYKLIYRHYATLYFVFCVDSSESELGILDLIQVFVETLDKCFENVCELDLIFHMDKVHYILQEVVMGGMVLETNMNEIVAQIEAQNRLEKSEGGLSAAPARAVSAVKNINLPEIPRNINIGDLNIKVPNLSQFV”: “not soluble”; for “MIQQESRLKVADNSGAREVLVIKVLGGSGRRYANIGDVVVATVKDATPGGVVKKGQVVKAVVVRTKRGVRRPDGSYIRFDENACVIIRDDKSPRGTRIFGPVARELRDKDFMKIISLAPEVI”: “soluble”.

“MIRGNAGIMTNYRLSNLFSLQAELNFTTHGKNYCIDGLPHRNRYGYEVTDQTLINIRLHYLELPLLAKFTLFSSQKVTFDMAAGPFIGYKLAARQKTEGGDYQNTTSDYTRLNAGYQISFGFSVMKKRLFFEMRGSRGFVPINTADATKITTMQGGVAIGYYFFSGKKK”: the “soluble on expression in E. coli” value is listed as “not soluble”. The same measure for “MIRRAPTTLQLSHDDVTSLIDDLNEQKLKQQLNIEKTKYFQGKNGGSLHSNTDFQDTSQNIEDNNNDNDNDIDEDDDMSSYNDKAASVAHTRVLNSLHLSTDSNTAHETSNANDNHNPFYIREE”: “not soluble”; for “MISAHCNLRLLCSSDSSASASQVAGTTEVVENLVTNDNSPNIPEAIDRLFSDIANINRESMAEIADIQIEEMAVNLWNWALTIGGGWLVNEEQKIRLHYVACKLLSMCEASFASEQSIQRLIMMNMRIGKEWLDAGNFLIADECFQAAVASLEQLYVKLIQRSSPEADLTMEKITVESDHFRVLSYQAESAVAQGDFQRASMCVLQCKDMLMRLPQMTSSLHHLCYNFGVETQKNNKYEESSFWLSQSYDIGKMDKKSTGPEMLAKVLRLLATNYLDWDDTKYYDKALNAVNLANKEHLSSPGLFLKMKILLKGETSNEELLEAVMEILHLDMPLDFCLNIAKLLMDHERESVGFHFLTIIHERFKSSENIGKVLILHTDMLLQRKEELLAKEKIEEIFLAHQTGRQLTAESMNWLHNILWRQAASSFEVQNYTDALQWYYYSLRFYSTDEMDLDFTKLQRNMACCYLNLQQLDKAKEAVAEAERHDPRNVFTQFYIFKIAVIEGNSERALQAIITLENILTDEESEDNDLVAERGSPTMLLSLAAQFALENGQQIVAEKALEYLAQHSEDQEQVLTAVKCLLRFLLPKIAEMPESEDKKKEMDRLLTCLNRAFVKLSQPFGEEALSLESRANEAQWFRKTAWNLAVQCDKDPVMMREFFILSYKMSQFCPSDQVILIARKTCLLMAVAVDLEQGRKASTAFEQTMFLSRALEEIQTCNDIHNFLKQTGTFSNDSCEKLLLLYEFEVRAKLNDPLLESFLESVWELPHLETKTFETIAIIAMEKPAHYPLIALKALKKALLLYKKEEPIDISQYSKCMHNLVNLSVPDGASNVELCPLEEVWGYFEDALSHISRTKDYPEMEILWLMVKSWNTGVLMFSRSKYASAEKWCGLALRFLNHLTSFKESYETQMNMLYSQLVEALSNNKGPVFHEHGYWSKSD”: “not soluble”.

Regarding “MISDRPGLPGEDMRLALLSFENYLLANRNTEKPVLHIALSPAPEDKLTDEQLAELAQNYMQKMGYGDQPYIAYKHGDTHNTHIHIVSVCVDEEGRKINDSFEHRRSMTACRELEIDFGLRNGADMEERNQKAEMKKVDATQGDVRHQIGNTLKAVLESYRFQTFGEYSALLSTLNIEAKQVRGEFKGEPYTGIIYSATDDSGKVVSPPFKSSRFGKRFGNERLEKRMLSHTRDFKDGKWAPTIHAQVVYAMRHARSREELAGLLKKARIDAVFRENEQGRIYGVTFIDHNRREVFNGSRMGKEFSANIYNELFKWWDGIPATERSAHTGTELWQHHSHKAESGSPLEQAASIFSMETNPVDYGEEALARRMKKRRKAKRKSRGILEHHHHHH”, the “soluble on expression in E. coli” value is “soluble”. The same measure for “MISNQILQNTIEGIKSISRVDLHVADTDGKIIASTSQLGDEFGHAIISFVNSPADSQSVQEYQFFKVYDESQLELILIAQGTSDDVFMVGKMAAFQIQNLLVAYKERFDKDNFIKNLLLDNLLLVDIYNRSKKLYIDVDARRCVCIIETKNEKDSVALETVRTLFSGNKKDFITAVDEKSIILVKELEEKQGYEDIEKIARTIVDMLNTEAMVKATVAYGTIVKEIKEVSRSYKEARMALDVGKIFFSTKNVIAYNNLGIGRLIYQLPIPLCKMFISEIFEGKSPDEFDEETLTTINKFFENSLNVSETSRQLYIHRNTLVYRLDKLQKSTGLDLRVFEDAITFKIALMVVKYMKYMENTDF”: “not soluble”; for “MISRVAQMYFSEHKRQAEIAQHLNLSQATVSRMLKRAEAEGIVRTSIIPPPGTYSDLEAQLRERFDLPEAIVVDCSEDRDGAIMARIGEAAAHFLEVTLSQNEIIGVSSWSQTIFKMVENIHPLKGAKARYIVQTLGGMGDPSVQTHATQITTRLARLTEAEPKLLPVPGVATSREAKLLMLADPFVRETIDLFGSITLAIVGVGAVEPSELLARSGNIFSTKELADLAQAGAVGDISLRFFDKDGKPVKTPLDDRVIGLPLENLSNVDRVIALAGGLKKTEAIAGALRTGVIDVLVTDKFTAERLVGQET”: “not soluble”; for “MISTANITQQFGAKPLFENISVKFGEGNRYGLIGANGCGKSTFMKILSGELEPTGGNVSYDPNERVAKLNQDQFAYEEFTVIDTVIMGHKELWEVKQERDRIYSLPEMSEEDGMKVADLEVQFAEMDGYMAEAKAGELLLAVGIPMEQHFGLMSEVAPGWKLRVLLAQILFADPDIMLLDEPTNNLDMDTIRWLEDTLNARNCTMIIISHDRHFLNSVCTHMADLDYGELRVYPGNYDEYMTAASQARERLLSDNAKKKAQIAELQTFVARFSANASKAKQATSRAKQIDKIKLDEVKASSRQNPFIRFEQSKELFRNA”: “not soluble”. As to “MISTPLSKEFEWPAKPVSLELQHQVEQFYYREAQLLDHHAFQAWFALLAEDIHYWMPIRTVRTAREQGLEYVPAGANAHFDDTHATMYGRIRQKTSDLNWAEDPPSRTRHLVSNVIVREMDTPGTLEVASAFLLYRSRLERQVDVFAGERRDVLRIADNPLGFQIAKRTIILDQSTVLANNLSVFF”, the “soluble on expression in E. coli” value is reported as “soluble”. “MITFIGHVSKDVNVVDGKREIAYGGGVVMGAITSSLLGVKTKVITKCTREDVSKFSFLRDNGVEVVFLKSPRTTSIENRYGSDPDTRESFLISAADPFTESDLAFIEGEAVHINPLWYGEFPEDLIPVLRRKVMFLSADAQGFVRVPENEKLVYRDWEMKEKYLKYLDLFKVDSREAETLTGTNDLRESCRIIRSFGAKIILATHASGVIVFDGNFYEASFRSWSLEGRTGRGDTCTAAFLVGFVFKKMSIEKATKFAAAVTSVKMRHPGPLRREDLEAISGDQYF”: the “soluble on expression in E. coli” value is “not soluble”.

As for “MITFRKRVEIEADPAEVFRVISDPWRITEFWKGTRQVIEDGDFYRIRFAFPAWGLMSFHPDAERMTVLTSYLKGPVRGSKVDAVLVSSGKTVLQTEWNVRLSFYLRPFERRIASHFESGADHAINRIKESVEKDKK”, the “soluble on expression in E. coli” value is “not soluble”.

For “MITIDLHTHTSHSHGQATVQEMFEAGCARGLLVHGFSEHSPRPSGYDYPKDYRDKLTRSFPDYVEQVRTLAATYAPERTVLLGLEMDWLPGQEPFIDATIHRYDYDYVIGGIHFLGTWGFDYTPDDWQGFSPEQTADIYVRYFESLRRMAASGMFDIAAHPDIIKIFSAAAFHDWLATDKAKAVVRDALETMHTAGMAMEISSAGLRKPCKEIYPCPDIMRMAADIGLPVTFGSDAHCVNTIGWGFDTLADYARGFGYTRSVWMRRGERFERPFLEHHHHHH”, the “soluble on expression in E. coli” value was “soluble”. The value for “MIVDLPDTTTTAVNKKLDELREKIGAVAMGRVLTLIIAPDSEAMLEESIEAANDASHEHPSRIIVTMRGDPYADRPRLDAQLRVGADAGAGEFVVLRLSGPLAGHADSVVIPFLLPDIPVVAWWPDIAPAVPAQDALGKLAIRRITDATNAIDPLSAIKSRLAGYGAGDTDLAWSRITYWRALLTSAVDQPRHEPIESALVSGLKTEPALDVLAGWLASRIEGPVRRAVGELKVELVRNSETIVLSRPQEGITATLTRTGKPDALVPLARRVTGECLAEDLRRLDPDEIYCAALEGIKKVQYR” was “not soluble”; that for “MIVREGSAEILVPEVYHGPGKRGTGFYNADQKINRDITIEFIKKMGIRNVLDGFGGTGIRGIRISKETDSAVTISEVSPDSYRLIRDNVERNGSQASVINDSFECVLQHGAYEYVDVDPYGSPVPYLDAALMGVKRNGFLGVTATDQSALTGSVPHKTRIRYDALIKNDTFRHEMGIRLLIGYMAKRAASLGRFIDPLISIWHGHYYRVFVRVRKGFEGAGRMMQNLGYVNKHNLLSGIYQDMDEGPVWKGNLQDNAVAEAVLASAGHKAFNPEENRLLFCDLTDIARARHTSLPDIESVIDALSSSGHAASRTMFSPTGIKTDASCDLVESLMMDTLHRRSPA” was “not soluble”; that for “MIVRGGGDLATGVIQKLWHVGFKILVLETECPLAIRRTVSVCDAIFQKEQRVEDLVAVRITSLKDCAKCWQQNKLPVFVDQTASAIQQLKPLIVIDAILAKKNLGTHRGMAPITIALGPGFSAPQDVDVVIETMRGHRLGRLYFEGTALPNTGIPGEIGGKSAERVVHAPASGQVTHLKNIGDLVLKGEALFLIDQVPVYSPLTGTLRGLISEKVTCYQGLKCADVDPRPVEKVDCLTISDKARALGGAVLEAIFMIGRRKNVLLEHHHHHH” was “soluble”. The same measure for “MIVTSLEDLRSRLRAYVSENGLRHTPERYSILEVAYNLKKIFTPDDLFDLTRENGLPVSLSTVYNTLTLLERCGIVLRLPSPETKYQYLMASFAEQCPLLFCTECAQFSTYYRRNVKSILADKDLRPPRFSYRQAIICLYGICDKCRKKQSALKKAADKAAPKKKK”: “not soluble”; for “MIWIAVDRVGKKFINCSFGSRGTETGQLLWEKLEKKEIGEVMTDHWRAYAAFLPETIHTQSKAETYTVEGYNSILRHFLARLRRKTKCYTKSLEMLKYSVLLLMKYRNRELTIFHASSVKLEHHHHHH”: “not soluble”; for “MKAANSGRTAAALECFERVVKLQSTPVNWSYLAFCVARERQQFEHATRLCEEAVRREPRSSVLYLNLGKVYLLSGRKDDAIRTFRQGLLYERNTLIESELRRLGLRKPPVLNFLAREHPVNKYLGIMLKKLKIRLEHHHHHH”: “not soluble”.
